Earlier results on 1 molecule are cited in US20110020225A1, “POROUS POLYMER PARTICLES IMMOBILIZED WITH CHARGED MOLECULES AND METHOD FOR PREPARING THE SAME” (KOREA RESEARCH INSTITUTE OF BIOSCIENCE AND BIOTECHNOLOGY, priority 2007, published 2011).

The conditions of the series: negative charge at pH 7.4.

B1: ovalbumin-fluorescent dye: ovalbumin-fluorescent dye (45 kDa, pI=4.6) having a negative charge at pH 7.4 (conjugate, UniProt P01012 2-386, looked up)
Ovalbumin: GSIGAASMEFCFDVFKELKVHHANENIFYCPIAIMSALAMVYLGAKDSTRTQINKVVRFDKLPGFGDSIEAQCGTSVNVHSSLRDILNQITKPNDVYSFSLASRLYAEERYPILPEYLQCVKELYRGGLEPINFQTAADQARELINSWVESQTNGIIRNVLQPSSVDSQTAMVLVNAIVFKGLWEKAFKDEDTQAMPFRVTEQESKPVQMMYQIGLFRVASMASEKMKILELPFASGTMSMLVLLPDEVSGLEQLESIINFEKLTEWTSSNVMEERKIKVYLPRMKMEEKYNLTSVLMAMGITDVFSSSANLSGISSAESLKISQAVHAAHAEINEAGREVVGSAEAGVDAASVSEEFRADHPFLFCIKHIATNAVLFFGRCVSP
modifications: fluorescent dye
With B1, the pI was 4.6.
